Results taken from patent US20250090699A1, “FAP TARGETING CYCLIC PEPTIDES AND CONJUGATES THEREOF” (Novartis AG, priority 2023, published 2025).
Starred links: 1 amine or outer side, 2 acyl side, 3 side chain; linkers in the order of their positions; H or OH if unused. Non-standard residues stand in square brackets, D forms with d. Primed or numbered codes have the meaning given here. *: point of attachment. F(4amPEG2NHDOTA-Lu) = lutetium complex of (S)-2,2',2''-(10-(1-(4-(2-amino-2-carboxyethyl)phenyl)-3,12-dioxo-5,8-dioxa-2,11-diazatridecan-13-yl)-1,4,7,10-tetraazacyclododecane-1,4,7-triyl)triacetic acid (Phe with 4-aminomethyl-PEG2-DOTA-Lu), O=C([O-])CN1CCN(CC(=O)[O-])CCN(CC(=O)NCCOCCOCC(=O)NCc2ccc(C[C@H](N[*:1])C(=O)[*:2])cc2)CCN(CC(=O)[O-])CC1.[Lu+3]; F(4amPEG2NHDOTA-Ga) = gallium complex of (S)-2,2',2''-(10-(1-(4-(2-amino-2-carboxyethyl)phenyl)-3,12-dioxo-5,8-dioxa-2,11-diazatridecan-13-yl)-1,4,7,10-tetraazacyclododecane-1,4,7-triyl)triacetic acid (Phe with 4-aminomethyl-PEG2-DOTA-Ga), O=C([O-])CN1CCN(CC(=O)[O-])CCN(CC(=O)NCCOCCOCC(=O)NCc2ccc(C[C@H](N[*:1])C(=O)[*:2])cc2)CCN(CC(=O)[O-])CC1.[Ga+3]; F(4amPEG2NHNODAGA-Ga) = gallium complex of 2,2'-(7-(1-(4-((S)-2-amino-2-carboxyethyl)phenyl)-15-carboxy-3,12-dioxo-5,8-dioxa-2,11-diazapentadecan-15-yl)-1,4,7-triazonane-1,4-diyl)diacetic acid (Phe with 4-aminomethyl-PEG2-NODAGA-Ga), O=C([O-])CN1CCN(CC(=O)[O-])CCN(C(CCC(=O)NCCOCCOCC(=O)NCc2ccc(C[C@H](N[*:1])C(=O)[*:2])cc2)C(=O)[O-])CC1.[Ga+3]; F(4amPEG2NH-NOTA-AlF) = aluminum [18F]fluoride complex of (S)-2,2'-(7-(1-(4-(2-amino-2-carboxyethyl)phenyl)-3,12-dioxo-5,8-dioxa-2,11-diazatridecan-13-yl)-1,4,7-triazonane-1,4-diyl)diacetic acid (Phe with 4-aminomethyl-PEG2-NOTA-Al18F), O=C([O-])CN1CCN(CC(=O)[O-])CCN(CC(=O)NCCOCCOCC(=O)NCc2ccc(C[C@H](N[*:1])C(=O)[*:2])cc2)CC1.[18F][Al+2]; F(4amPEG2NH-NOTA-Ga) = gallium complex of (S)-2,2'-(7-(1-(4-(2-amino-2-carboxyethyl)phenyl)-3,12-dioxo-5,8-dioxa-2,11-diazatridecan-13-yl)-1,4,7-triazonane-1,4-diyl)diacetic acid (Phe with 4-aminomethyl-PEG2-NOTA-Ga), O=C([O-])CN1CCN(CC(=O)[O-])CCN(CC(=O)NCCOCCOCC(=O)NCc2ccc(C[C@H](N[*:1])C(=O)[*:2])cc2)CC1.[Ga+3]; F(4amDOTA-Lu) = lutetium complex of (S)-2,2',2''-(10-(2-((4-(2-amino-2-carboxyethyl)benzyl)amino)-2-oxoethyl)-1,4,7,10-tetraazacyclododecane-1,4,7-triyl)triacetic acid (Phe with 4-aminomethyl-DOTA-Lu), O=C([O-])CN1CCN(CC(=O)[O-])CCN(CC(=O)NCc2ccc(C[C@H](N[*:1])C(=O)[*:2])cc2)CCN(CC(=O)[O-])CC1.[Lu+3]; F(4amPEG2NHAAZTA-Lu) = lutetium complex of (S)-2,2'-((6-(1-(4-(2-amino-2-carboxyethyl)phenyl)-3,12-dioxo-5,8-dioxa-2,11-diazahexadecan-16-yl)-1,4-bis(carboxymethyl)-1,4-diazepan-6-yl)azanediyl)diacetic acid (Phe with 4-aminomethyl-PEG2-AAZTA-L; F(4OEtnHNODAGA-Lu) = lutetium complex of 2,2'-(7-(4-((2-(4-((S)-2-amino-2-carboxyethyl)phenoxy)ethyl)amino)-1-carboxy-4-oxobutyl)-1,4,7-triazonane-1,4-diyl)diacetic acid (Phe with 4-O-ethylamino-NODAGA-Lu); COpipzaa = 4-(carboxymethyl)piperazine-1-carbonyl, O=C(O)CN1CCN(C(=O)*)CC1; F(4amPEG2NHRDOTAGA-Ga) = Phe with 4-aminomethyl-PEG2-NH-DOTAGA, Ga complex; F(4amPEG2NHRDOTAGA-Lu) = Phe with 4-aminomethyl-PEG2-NH-DOTAGA, Lu complex; F(4amPEG2NHDOTA-Ga)″ = Phe with 4-aminomethyl-PEG2-NH-DOTA, Ga complex; F(4OEtNHRDOTAGA-Lu) = Phe with 4-O-ethyl-NH-DOTAGA, Lu complex; hS(Pr) = O-propyl-L-homoserine, CCCOCC[C@H](N[*:1])C(=O)[*:2]; NMeF = CN[C@@H](Cc1ccccc1)C(=O)O; Ahp(2) = CCCCC[C@H](N)C(=O)O

Legend:
human FAP = molecular target: T1, human FAP (Homo sapiens, UniProt Q12884); experiment: Enzymatic FAP competition assay (Z-Gly-Pro-AMC fluorescence), human FAP; assay type: biochemical; settings: read-out: h. FAP, Enz., IC50
T1 construct: the biotinylated His, Avi tag, human FAP (26-760, FAP-H82Q6); His; Avi tag (biotinylated); purchased AcroBiosystems FAP-H82Q6
T1 sequence (Q12884 26-760): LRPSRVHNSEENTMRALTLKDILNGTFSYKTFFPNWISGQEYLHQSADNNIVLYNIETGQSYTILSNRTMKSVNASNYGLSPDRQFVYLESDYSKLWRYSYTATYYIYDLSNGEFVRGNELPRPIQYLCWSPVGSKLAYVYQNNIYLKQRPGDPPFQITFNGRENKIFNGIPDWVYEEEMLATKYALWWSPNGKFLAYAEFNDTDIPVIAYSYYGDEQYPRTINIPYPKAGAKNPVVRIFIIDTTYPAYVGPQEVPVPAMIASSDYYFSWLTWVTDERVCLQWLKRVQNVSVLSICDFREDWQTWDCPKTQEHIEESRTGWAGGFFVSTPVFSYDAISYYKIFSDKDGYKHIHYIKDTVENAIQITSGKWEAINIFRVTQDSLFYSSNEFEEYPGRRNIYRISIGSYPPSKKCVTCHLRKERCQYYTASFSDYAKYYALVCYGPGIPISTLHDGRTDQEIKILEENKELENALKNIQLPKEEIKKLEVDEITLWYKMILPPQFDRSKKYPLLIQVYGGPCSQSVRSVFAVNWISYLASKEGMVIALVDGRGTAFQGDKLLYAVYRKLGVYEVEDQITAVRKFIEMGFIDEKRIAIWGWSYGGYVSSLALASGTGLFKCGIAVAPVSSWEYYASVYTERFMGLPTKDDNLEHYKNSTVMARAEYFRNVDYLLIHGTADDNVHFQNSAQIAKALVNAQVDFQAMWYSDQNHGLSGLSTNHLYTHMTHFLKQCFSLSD
Procedure, shortened: (§1)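 Biotinylated His/Avi-tagged FAP ectodomain (human 26-760, mouse 26-761) at 0.01 nM, preincubated 24 h with peptides (14 concentrations, up to 1 μM) in pH 7.5 phosphate, 150 mM NaCl, 0.05% Tween20, 1% DMSO. Then 50 μM Z-Gly-Pro-AMC, 4 h at 22-24° C; AMC fluorescence (380/460 nm) gave IC50 from duplicate points.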

mouse FAP [1] = molecular target: T2, mouse FAP (Mus musculus, UniProt P97321); experiment: Enzymatic FAP competition assay (Z-Gly-Pro-AMC fluorescence), mouse FAP; assay type: biochemical; settings: read-out: m. FAP, Enz., IC50
T2 construct: biotinylated His, Avi tag, mouse FAP (26-761, FAP-M82Q5); His; Avi tag (biotinylated); purchased AcroBiosystems FAP-M82Q5
T2 sequence (P97321 26-761): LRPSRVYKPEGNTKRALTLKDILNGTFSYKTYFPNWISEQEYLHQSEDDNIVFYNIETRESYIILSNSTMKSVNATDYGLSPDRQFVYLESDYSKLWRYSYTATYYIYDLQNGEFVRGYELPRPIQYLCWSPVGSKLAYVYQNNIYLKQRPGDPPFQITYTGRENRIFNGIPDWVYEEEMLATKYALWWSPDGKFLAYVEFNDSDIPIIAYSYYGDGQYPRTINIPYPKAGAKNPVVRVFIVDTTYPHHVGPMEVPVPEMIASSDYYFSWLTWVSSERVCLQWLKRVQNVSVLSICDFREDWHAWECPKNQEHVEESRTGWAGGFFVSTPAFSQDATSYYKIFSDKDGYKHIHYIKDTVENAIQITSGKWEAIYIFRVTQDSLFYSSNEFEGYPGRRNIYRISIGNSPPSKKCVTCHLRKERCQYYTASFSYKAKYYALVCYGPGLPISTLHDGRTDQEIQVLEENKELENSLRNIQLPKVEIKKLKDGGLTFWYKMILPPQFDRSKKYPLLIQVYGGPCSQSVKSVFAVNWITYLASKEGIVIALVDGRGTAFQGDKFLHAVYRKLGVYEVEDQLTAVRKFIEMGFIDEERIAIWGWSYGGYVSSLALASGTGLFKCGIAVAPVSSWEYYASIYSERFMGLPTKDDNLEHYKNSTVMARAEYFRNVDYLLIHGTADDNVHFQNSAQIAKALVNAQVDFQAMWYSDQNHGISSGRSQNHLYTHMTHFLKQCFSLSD
Procedure, shortened: as §1

mouse FAP [2] = molecular target: T2, mouse FAP; experiment: Surface plasmon resonance (SPR) for peptide affinity, mouse FAP; assay type: binding
Procedure, shortened: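 Biotinylated His/Avi-tagged FAP ectodomains (human 26-760, mouse 26-761) captured or immobilized on Biacore sensor chips; peptides run at 25 °C in HBS-EP+ pH 7.6 with 2% DMSO, single-cycle kinetics, 8 concentrations. KD from 1:1 binding-model fit of sensorgrams.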

Substance	IC50 (human FAP)	IC50 (mouse FAP [1])	Kd (mouse FAP [2])
Gly-Gly-NMePhe-F(4OEtNHRDOTAGA-Lu)-Ahp-Trp-Gly-Tyr-Asp-D-Pro (cyclo(GG[NMeF][F(4OEtNHRDOTAGA-Lu)][Ahp(2)]WGYD[dP]); also: Lu complex of DOTAGA) [Example C31]	0.007 nM	0.027 nM	< 0.01 nM
Gly-Gly-NMePhe-F(4OEtnHNODAGA-Lu)-Ahp-Trp-Gly-Tyr-Asp-D-Pro (cyclo(GG[NMeF][F(4OEtnHNODAGA-Lu)][Ahp(2)]WGYD[dP]); also: Lu complex) [Example C30]	0.034 nM	0.193 nM	< 0.017 nM
Gly-Gly-NMePhe-F(4amDOTA-Lu)-Ahp-Trp-Gly-Tyr-Asp-D-Pro (cyclo(GG[NMeF][F(4amDOTA-Lu)][Ahp(2)]WGYD[dP]); also: Lu complex) [Example C16]	0.084 nM	0.29 nM	0.4 nM
Gly-Gly-NMePhe-F(4amPEG2NH-NOTA-AlF)-hS(Pr)-Trp-Gly-K(COpipzaa)-Asp-D-Pro (cyclo(GG[NMeF][F(4amPEG2NH-NOTA-AlF)][hS(Pr)]WGK(COpipzaa)D[dP]); also: Al[18F]F complex) [Example C53]	0.013 nM	0.035 nM	< 0.035 nM
Gly-Gly-NMePhe-F(4amPEG2NH-NOTA-Ga)-hS(Pr)-Trp-Gly-K(COpipzaa)-Asp-D-Pro (cyclo(GG[NMeF][F(4amPEG2NH-NOTA-Ga)][hS(Pr)]WGK(COpipzaa)D[dP]); also: Ga complex) [Example C41]	0.013 nM	0.031 nM	< 0.043 nM
Gly-Gly-NMePhe-F(4amPEG2NHAAZTA-Lu)-hS(Pr)-Trp-Gly-K(COpipzaa)-Asp-D-Pro (cyclo(GG[NMeF][F(4amPEG2NHAAZTA-Lu)][hS(Pr)]WGK(COpipzaa)D[dP]); also: Lu complex) [Example C32]	0.017 nM	0.044 nM	< 0.027 nM
Gly-Gly-NMePhe-F(4amPEG2NHDOTA-Ga)-Ahp-Trp-Gly-Tyr-Asp-D-Pro (cyclo(GG[NMeF][F(4amPEG2NHDOTA-Ga)][Ahp(2)]WGYD[dP]); also: Ga complex) [Example C49]	0.005 nM	0.016 nM	< 0.012 nM
Gly-Gly-NMePhe-F(4amPEG2NHDOTA-Lu)-Ahp-Trp-Gly-Tyr-Asp-D-Pro (cyclo(GG[NMeF][F(4amPEG2NHDOTA-Lu)][Ahp(2)]WGYD[dP]); also: Lu complex) [Example C15]	0.003 nM	0.009 nM	0.013 nM
Gly-Gly-NMePhe-F(4amPEG2NHNODAGA-Ga)-hS(Pr)-Trp-Gly-K(COpipzaa)-Asp-D-Pro (cyclo(GG[NMeF][F(4amPEG2NHNODAGA-Ga)][hS(Pr)]WGK(COpipzaa)D[dP]); also: Ga complex) [Example C40]	0.006 nM	0.019 nM	< 0.02 nM
Gly-Gly-NMePhe-F(4amPEG2NHRDOTAGA-Ga)-hS(Pr)-Trp-Gly-K(COpipzaa)-AsI-D-Pro (cyclo(GG[NMeF][F(4amPEG2NHRDOTAGA-Ga)][hS(Pr)]WGK(COpipzaa)D[dP]); also: Ga complex) [Example C39]	0.015 nM	0.051 nM	< 0.024 nM
Gly-Gly-NMePhe-F(4amPEG2NHRDOTAGA-Lu)-hS(Pr)-Trp-Gly-K(COpipzaa)-Asp-D-Pro (cyclo(GG[NMeF][F(4amPEG2NHRDOTAGA-Lu)][hS(Pr)]WGK(COpipzaa)D[dP]); also: Lu complex) [Example C33]	0.012 nM	0.026 nM	< 0.02 nM
Gly-Gly-NMePhe-F(4amPeG2NHDOTA-Ga)-Ahp-Trp-Gly-K(COpipzaa)-asp-D-Pro (cyclo(GG[NMeF][F(4amPEG2NHDOTA-Ga)″][Ahp(2)]WGK(COpipzaa)D[dP]); also: Ga in DOTA chelate) [Example C46]	0.012 nM	0.032 nM	< 0.016 nM
